Data reported in article PMC9966725, “Preclinical Evaluation of a Lead Specific Chelator (PSC) Conjugated to Radiopeptides for ^203Pb and ^212Pb-Based Theranostics” (Pharmaceutics, 2023).

Assays:
[1] = TCMC chelator in an anti-CD37 radioimmunoconjugate; cited from earlier work
Excerpt: Potential ambiguity in these predictions arises due to the nature of the ^212Pb decay series. The decay of ^212Pb to ^212Bi might lead to a decoupling of the progeny ^212Bi from the chelator, adding uncertainty to the biodistribution of radioactivity, especially the α-emitters (i.e., ^212Bi, ^212Po). Using particle and heavy ion transport code system (PHITS) modeling, we have shown that α-particles contribute to more than 90% of dose deposition in 10 µm diameter single cells and 1 cm diameter micro-metastasis, while the dose from β-particles becomes more significant ...

AR42J xenograft = assay: in vivo; parameters: species or system mice; conditions: female, athymic nude, mouse, 24 h
Protocol: (§1) Biodistribution of [^212Pb]Pb-PSC-PEG-T and progeny ^212Bi^3+ was determined in two animal models, including female naïve CD-1Elite mice and athymic mice bearing AR42J tumor xenografts. SSTR2-positve AR42J cells were cultured in 10% Minimum Essential Medium (MEM) supplemented with 10% fetal bovine serum (FBS), 100 units mL^−1 penicillin, and 100 units mL^−1 streptomycin 37 °C in a humidified atmosphere (5% CO2). All animal studies were performed in accordance with the Guide for the Care and Use of Laboratory Animals, according to protocols approved by the University of Iowa Animal Care and Use Committee (protocol#1122453 approved on 16 February 2022). Xenograft of AR42J tumor was developed by subcutaneous (s.c.) injection of 1 × 10^6 cells at the left shoulder of female athymic nude mice. [^212Pb]Pb-PSC-PEG-T was radiolabeled and purified as described above, and kept at room temperature away from light for 3 h before injection, to allow progeny ^212Bi to approach equilibrium before injection. Upon assay, 74 kBq [^212Pb]Pb-PSC-PEG-T (peptide mass = 5–10 pmole) were injected via tail vein (n = 2–3). Animals were euthanized at designated time points (1, 5, 24 h for naïve CD-1 mice; 1, 4 h for AR42J-bearing mice). Organs of interest and tumors were collected, rinsed, and weighed. Radioactivity of ^212Pb and ^212Bi in each sample was measured on an automated gamma counter by 238 keV and 583 keV gamma peaks, respectively. ^212Bi was purified from the generator eluate on RE2 resin and collected in pH = 6 sodium acetate as described above. Biodistribution of free ^212Bi in normal organs was determined at 2 h post injection of 74 kBq ^212Bi in naïve female CD-1 Elite mice (n = 3). Radioactivity in samples was decay corrected and data were expressed as percent injected dose per gram of tissue (%ID/g). SPECT imaging of [^203Pb]Pb-PSC-PEG-T and [^212Pb]Pb-PSC-PEG-T in female athymic nude mice bearing AR42J xenograft (n = 2) was conducted on Bioemtech Gamma-Eye Imaging system (Bioemtech, Athens, Greece) with 30–500 keV dynamic range and 1.9 mm spatial resolution. Whole body 2D-SPECT imaging of [^203Pb]Pb-PSC-PEG-T and [^212Pb]Pb-PSC-PEG-T were collected at 3 h and 24 h (n = 2) post injection of 1.8 MBq [^203Pb]Pb-PSC-PEG-T (52 MBq nmole^−1) and 3.7 MBq [^212Pb]Pb-PSC-PEG-T (20 MBq nmole^−1). SPECT images were generated by acquiring ten 30 s projections. Imaging data were reconstructed and normalized to percent of injected dose (%ID) in tumor and kidneys based on region of interest (ROI) analysis on VISUAL-Eyes software (Bioemtech, Athens, Greece). Animals were euthanized after conclusion of the study at 24 h post injection. Tumor xenografts and organs of interest were collected and weighed. Radioactivity of ^203Pb or ^212Pb was determined on automated gamma counter and normalized to %ID/g.

[2] = system: SSTR2-positive AR42J xenografts; assay: in vivo; parameters: species or system mice; conditions: female, athymic nude, mouse, iv, 74 kBq, 1 h
Protocol: as §1

[3] = Stability of radiopeptide in saline, radio-HPLC; assay type: physicochemical; conditions: 24 h storage in saline, C18, fractions counted on gamma counter
Protocol: Using [^203Pb]Pb-PSC-PEG-T surrogate, radiochemical stability of [^203Pb]Pb-PSC-PEG-T in saline was monitored for 72 h. Similarly, single species of [^212Bi]Bi-PSC-PEG-T in saline were also monitored for 5 h (five half-lives of ^212Bi). [^203Pb]Pb-PSC-PEG-T and [^212Bi]Bi-PSC-PEG-T were radiolabeled and purified on Sep-Pak® C18 SPE columns as previously described. Next, 7.4 MBq mL^−1 of purified [^203Pb]Pb-PSC-PEG-T and [^212Bi]Bi-PSC-PEG-T were stored in saline supplemented with 5% EtOH and 1 mg mL^−1 sodium ascorbate for 72 h and 5 h, respectively, followed by analysis of radiochemical purity by radio-iTLC method. Then, radiochemical stability of [^212Pb]Pb-PSC-PEG-T and progeny [^212Bi]Bi-PSC-PEG-T were determined by radio-iTLC after storage of 37 MBq mL^−1 radiolabeled [^212Pb]Pb-PSC-PEG-T in saline for 24 h, and further confirmed by radio-HPLC analysis. In human serum, radiochemical stability of [^212Pb]Pb-PSC-PEG-T and progeny [^212Bi]Bi-PSC-PEG-T were determined after incubation of 3.7 MBq [^212Pb]Pb-PSC-PEG-T in 1 mL human serum at 37 °C for 24 h. In addition, metabolic stability of Pb-PSC-PEG-T radiopeptide in serum was determined by radio-HPLC after incubating [^203Pb]Pb-PSC-PEG-T surrogate in human serum for 55 h (five half-lives of ^212Pb). […] The supernatant was collected and analyzed on radio-HPLC. […]

[4] = Radiochemical stability of radiometal complex in saline, radio-iTLC; assay type: physicochemical; conditions: 37 MBq mL^-1 in saline at room temperature for 24 h, regardless of PSC-PEG-T concentration (1, 3, 5 µM)
Protocol: Using [^203Pb]Pb-PSC-PEG-T surrogate, radiochemical stability of [^203Pb]Pb-PSC-PEG-T in saline was monitored for 72 h. Similarly, single species of [^212Bi]Bi-PSC-PEG-T in saline were also monitored for 5 h (five half-lives of ^212Bi). [^203Pb]Pb-PSC-PEG-T and [^212Bi]Bi-PSC-PEG-T were radiolabeled and purified on Sep-Pak® C18 SPE columns as previously described. Next, 7.4 MBq mL^−1 of purified [^203Pb]Pb-PSC-PEG-T and [^212Bi]Bi-PSC-PEG-T were stored in saline supplemented with 5% EtOH and 1 mg mL^−1 sodium ascorbate for 72 h and 5 h, respectively, followed by analysis of radiochemical purity by radio-iTLC method. Then, radiochemical stability of [^212Pb]Pb-PSC-PEG-T and progeny [^212Bi]Bi-PSC-PEG-T were determined by radio-iTLC after storage of 37 MBq mL^−1 radiolabeled [^212Pb]Pb-PSC-PEG-T in saline for 24 h, and further confirmed by radio-HPLC analysis. In human serum, radiochemical stability of [^212Pb]Pb-PSC-PEG-T and progeny [^212Bi]Bi-PSC-PEG-T were determined after incubation of 3.7 MBq [^212Pb]Pb-PSC-PEG-T in 1 mL human serum at 37 °C for 24 h. In addition, metabolic stability of Pb-PSC-PEG-T radiopeptide in serum was determined by radio-HPLC after incubating [^203Pb]Pb-PSC-PEG-T surrogate in human serum for 55 h (five half-lives of ^212Pb). Following the incubation, serum protein was precipitated in ice-cold methanol (1:1.5 v/v) for 10 min, followed by centrifugation at 10,000× g for 10 min. The supernatant was collected and analyzed on radio-HPLC.
In radio-iTLC analysis, 0.1 M NaOAc with 1 mM DTPA was used as mobile phase for ^203Pb, ^212Pb, ^212Bi. Citric acid (0.1 M) was used as mobile phase for ^68Ga. Upon radio-iTLC analysis, 2 µL aliquot sample was spotted on the radio-iTLC strips (2 × 10 cm) and developed in the mobile phase. Radioactivity of ^203Pb and ^212Pb was measured on NaI(Tl) gamma spectroscope using 279 keV and 238 keV gamma peaks, respectively. Radioactivity of ^212Bi on radio-iTLC was measured on the Ludlum Model 3030 α-particle counter. Radio-HPLC analysis was conducted on Agilent 1260 (Agilent, Santa Clara, CA, USA). Binary mobile phases were applied to run 5–60% phase B (acetonitrile) over phase A (0.1% TFA in water) over 10 min on ZORBAX RR Eclipse XDB-C18 column (4.6 × 150 mm, 5 µm). Radioactivity of ^203Pb was measured on flow-through 105S-1 single channel radiation detector (Corroll & Ramsey, Fort Collins, CO, USA). To measure ^212Pb and ^212Bi activity on radio-HPLC, eluate was collected every 10 s on a HPLC fraction collector. Radioactivity of ^212Pb and ^212Bi in each collected eluate was measured on Cobra II automated gamma counter using 238 keV and 583 keV gamma peaks immediately after collection.

Structure (SMILES) | ^212Bi^3+ ejected from chelator [1] [%] | activity in lungs (AR42J xenograft) [%ID/g] | accumulation in adrenal glands [2] [%ID/g] | accumulation in bones [2] [%ID/g] | accumulation in kidneys [2] [%ID/g] | accumulation in liver [2] [%ID/g] | accumulation in spleen [2] [%ID/g] | radiochemical purity (radiometal remained incorporated as radiopeptide) [3] [%] | ^212Pb remained in PSC-PEG-T [4]
NC(=O)CN1CCN(CC(N)=O)CCN(CC(N)=O)CCN(CC(N)=O)CC1 [TCMC, 1,4,7,10-Tetrakis(carbamoylmethyl)-1,4,7,10-tetraazacyclododecane] | 16 |  |  |  |  |  |  |  | 
C[C@@H](O)[C@@H]1NC(=O)[C@H](CCCCN)NC(=O)[C@@H](Cc2c[nH]c3ccccc23)NC(=O)[C@H](Cc2ccc(O)cc2)NC(=O)[C@@H](NC(=O)[C@@H](Cc2ccccc2)NC(=O)CCOCCOCCNC(=O)CN2CCN(CC(=O)O)CCN(CC(N)=O)CCN(CC(=O)O)CC2)CSSC[C@@H](C(=O)N[C@H](CO)[C@@H](C)O)NC1=O [[^212Pb]Pb-PSC-PEG-T] [metal not drawn] |  | 0.3 | 3.6 | 1.4 | 28.1 | 0.8 | 0.6 | > 95 | More than 99.6%
